Biological target: GST-OGG1 wt (UniProt O15527 1-345)
Experiment: EMSA

GST-OGG1 wt, sequence (O15527 whole entry): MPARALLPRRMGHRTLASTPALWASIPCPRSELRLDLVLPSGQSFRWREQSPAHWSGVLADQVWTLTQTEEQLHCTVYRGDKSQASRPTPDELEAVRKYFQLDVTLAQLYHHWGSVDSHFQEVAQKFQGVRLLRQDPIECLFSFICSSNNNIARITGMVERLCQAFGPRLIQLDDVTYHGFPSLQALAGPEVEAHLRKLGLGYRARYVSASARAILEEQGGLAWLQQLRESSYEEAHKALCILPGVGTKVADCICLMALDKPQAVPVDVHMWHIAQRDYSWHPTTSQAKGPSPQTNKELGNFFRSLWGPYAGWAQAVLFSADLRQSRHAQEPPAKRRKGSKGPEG

B1: Cy5 probe (8-oxoG) (dsDNA)
DNA 1: AGAGAAGAAGAAGAAGAGATGGGTTATTCGAACTAGC
DNA 2: GCTAGTTCGAATAACCCATCTCTTCTTCTTCTTCTCT
modifications: 8-oxoG at position 16 of strand 1
binding result: binds

B2: G2 probe (8-oxoG) (dsDNA)
DNA 1: CGATGTCTGGAAAAGCCCGGGGACCAGGGAA
DNA 2: TTCCCTGGTCCCCGGGCTTTTCCAGACATCG
modifications: 8-oxoG at position 27 of strand 1 (antisense)
binding result: binds
